The term EC50 denotes the midpoint of the concentration-response curve. Low values mean a more potent agent, high ones a less potent agent.

Where only a bound is given, the exact number is not on record here.

Assay [1] deals with SARS-CoV-2 Wuhan spike protein trimer (AcroBiosystems) (SARS-CoV-2 (Wuhan)) (UniProt P0DTC2). As to the kind of experiment: ELISA; Wuhan spike 2 µg/mL coated; rCL-11 3 µg/mL with L-fucose or D-galactose (0 to 200 mM) or 20 mM EDTA, 18 h at 4 °C. (In general: An ELISA detects its analyte on a solid surface through an enzyme-linked reagent.)
Assay [2] concerns the target SARS-CoV-2 Omicron BA.1 spike protein trimer (AcroBiosystems) (SARS-CoV-2 (Omicron BA.1)) (UniProt P0DTC2). As to the kind of experiment: ELISA; spike trimer (Wuhan or Omicron BA.1) or BSA coated on Nunc MaxiSorp plates in carbonate/bicarbonate buffer, 18 h at 4 °C; rCL-11 (CHO) in solution, either titrated on 2 µg/mL spike or 3 µg/mL on a range of spike; detected with rabbit anti-human CL-11 and HRP anti-rabbit IgG.

The target in assay [3] is SARS-CoV-2 Wuhan spike protein trimer (AcroBiosystems) (SARS-CoV-2 (Wuhan)) (UniProt P0DTC2). The description is as above.

As to “recombinant collectin-11 (rCL-11), CHO-expressed (from UniProt Q9BWP8 26-271) (natural protein)”, in assay [1], the percent inhibition by L-fucose is > 90%. Also, the EC50 in assay [2] worked out at 6 nM; in assay [3], 7.6 nM.

Values taken from article PMC12582335.
